{"source": "patent US7250269B2", "about": "“Composition for assaying glycoprotein” (Asahi Kasei Pharma Corporation, priority 2001, dated 2007)", "format_in_all_cases": "biochemical", "key": {"[1]": {"molecular_target": "T1, Hb substrate solution: Hemoglobin Human (Homo sapiens, UniProt P68871+P69905)", "T1 construct": "purchased Sigma-Aldrich Co", "T1 sequence (P69905 2-142 limits assumed)": "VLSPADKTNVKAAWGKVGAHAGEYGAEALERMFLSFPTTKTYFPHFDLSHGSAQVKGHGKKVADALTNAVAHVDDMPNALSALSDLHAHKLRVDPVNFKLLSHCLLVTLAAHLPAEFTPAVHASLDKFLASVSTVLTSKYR", "T1 sequence (P68871 2-147 limits assumed)": "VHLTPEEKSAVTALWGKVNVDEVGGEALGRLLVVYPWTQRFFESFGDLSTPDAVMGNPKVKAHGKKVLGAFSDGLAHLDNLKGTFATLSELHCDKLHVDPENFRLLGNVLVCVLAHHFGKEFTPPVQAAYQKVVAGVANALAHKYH", "experiment": "Activity of various proteases on Hb substrate solution (R-FOD assay)", "settings": "pH 8.0; 37° C. for 60 minutes", "experimental": "(§1) • 1. […] GA % was assayed using a glycated albumin analyzer (GAA-2000, manufactured by ARKRAY, Inc.). • 2. G-II and III substrate solutions, FRA value=48 μmol/L [Globulins Human Cohn Fraction II and III; 16.9 mg/ml (manufactured by Sigma-Aldrich Co.)] • 3. G-IV substrate solution, FRA value=26 μmol/L [Globulins Human Cohn Fraction IV; 6 mg/ml (manufactured by Sigma-Aldrich Co.)] • 4. G-I substrate solution, FRA value=77 μmol/L [Glovenin I: immunoglobulin preparation (manufactured by Takeda Chemical Industries, Ltd.)] • 5. Hb substrate solution: Hemoglobin Human; 55 mg/ml, glycated hemoglobin rate: HbA1c=4.5% [manufactured by Sigma-Aldrich Co., the HbA1c value was determined using a glycated hemoglobin analyzer (Hi-Auto A1C HA-8150, manufactured by ARKRAY, Inc.)].\nFor the Hb substrate solution, 150 μl of the substrate solution, 60 μl of 200 mg/ml protease solution (a solution with a concentration as close to 200 mg/ml as possible if a 200 mg/ml solution cannot be prepared, or as is if the protease solution is liquid), and 5 μl of 1 M Tris buffer solution (pH 8) were thoroughly mixed and reacted at 37° C. for 60 minutes. The reaction solution was filtered through 10,000 NMWL membrane (Ultrafree MC, manufactured by Millipore Corp.). The filtrate was served as the protease reaction sample. The same procedure was conducted using distilled water instead of the substrate to prepare a blank sample.\n(§2) 300 μl of the above reaction solution for assaying glycated amino acids was added to a cell and incubated for three minutes at 37° C. […] 30 μl of the protease reaction sample was then added to the cell and incubated for five minutes at 37° C. […] The same procedure was conducted using the blank sample instead of the protease reaction sample. Absorbances (A0 blank and A1 blank) were measured. The reaction of protease with glycated proteins is indicated by the following absorbance change. ΔA=(A1−A0)−(A1 blank−A0 blank)"}, "[2]": {"test_system": "G-I substrate solution (Glovenin I: immunoglobulin preparation)", "experiment": "Activity of various proteases on G-I substrate solution (R-FOD assay)", "settings": "pH 8.0, 37° C. for 30 minutes", "experimental": "as §1\n(§3) 200 μl of a substrate solution other than Hb, 40 μl of 100 mg/ml protease solution (a solution with a concentration as close to 100 mg/ml as possible if a 100 mg/ml solution cannot be prepared, or as is if the protease solution is liquid), and 10 μl of 1 M Tris buffer solution (pH 8) were thoroughly mixed and reacted at 37° C. for 30 minutes. The reaction solution was filtered through 10,000 NMWL membrane (Ultrafree MC, manufactured by Millipore Corp.) The filtrate was served as the protease reaction sample. The same procedure was conducted using distilled water instead of the substrate to prepare a blank sample.\nas §2"}, "[3]": {"molecular_target": "T2, HSA substrate solution; Albumin Human (Homo sapiens, UniProt P02768)", "T2 construct": "purchased Sigma-Aldrich Co", "experiment": "Activity of various proteases on HSA substrate solution (released glycated amino acids/peptides assayed with R-FOD)", "settings": "pH 8.0; 37° C. for 30 minutes", "experimental": "as §1, §3, §2"}, "[4]": {"experiment": "FOD enzyme activity / substrate specificity on glycated lysine", "settings": "glycated lysine / glycated valine", "experimental": "164 strains of mutant colonies obtained in Example 15 were cultured for 16 hours at 30° C. in 1.5 ml of a 3.7% BHI liquid medium (manufactured by DIFCO Co.) containing 50 μg/ml of ampicillin and 1 mM of IPTG. 1 ml of the culture broth was centrifuged (15,000 G for one minute at 4° C.) to collect cells. 200 μl of 10 mM Tris-HCl buffer solution (pH 8.0) was added to the collected cells. After crushing the cells using an ultrasonic breaker, the mixture was centrifuged (14,000 G for five minutes at 4° C.) to obtain a cell extract as a supernatant.\nThe glycated amino acid substrate specificity of FOD-mutated recombinant contained in the cell extract prepared in Example 16 was measured using the above-mentioned FOD enzyme activity measuring method.\nSynthesis of an oligonucleotide having the base sequence of 1-27 in the sequence table Sequence ID No. 7 was consigned to an outside source (BEX Co., Ltd.). The oligonucleotide was subjected to the site-directed mutagenesis using the Mutan-K kit (manufactured by Takara Shuzo Co., Ltd.) according to the manual attached to the kit. The mutant gene obtained was incorporated again into the expression plasmid pTV119N, introduced into Escherichia coli host, and cultured at 30° C. for 16 hours in a 3.7% BHI liquid medium containing 50 μg/ml of ampicillin and 1 mM of IPTG to produce mutant FOD protein."}}}
{"molecule": "Papain: protease, origin Papaya (protein, UniProt P00784 134-345, looked up) Papain: IPEYVDWRQKGAVTPVKNQGSCGSCWAFSAVVTIEGIIKIRTGNLNEYSEQELLDCDRRSYGCNGGYPWSALQLVAQYGIHYRNTYPYEGVQRYCRSREKGPYAAKTDGVRQVQPYNEGALLYSIANQPVSVVLEAAGKDFQLYRGGIFVGPCGNKVDHAVAAVGYGPNYILIKNSWGTGWGENGYIRIKRGTGNSYGVCGLYTSSFYPVKN", "values": [{"measurement": "ΔA Hb", "setting": "[1]", "value": "<1", "unit": "mAbs"}, {"measurement": "ΔA Gl", "setting": "[2]", "value": 5, "unit": "mAbs"}, {"measurement": "ΔA HSA", "setting": "[3]", "value": 15, "unit": "mAbs"}]}
{"molecule": "Alcalase: protease, origin Bacillus (protein, UniProt P00780 106-379, looked up) Subtilisin Carlsberg: AQTVPYGIPLIKADKVQAQGFKGANVKVAVLDTGIQASHPDLNVVGGASFVAGEAYNTDGNGHGTHVAGTVAALDNTTGVLGVAPSVSLYAVKVLNSSGSGSYSGIVSGIEWATTNGMDVINMSLGGASGSTAMKQAVDNAYAKGVVVVAAAGNSGSSGNTNTIGYPAKYDSVIAVGAVDSNSNRASFSSVGAELEVMAPGAGVYSTYPTNTYATLNGTSMASPHVAGAAALILSKHPNLSASQVRNRLSSTATYLGSSFYYGKGLINVEAAAQ", "values": [{"measurement": "ΔA Hb", "setting": "[1]", "value": 17, "unit": "mAbs"}, {"measurement": "ΔA Gl", "setting": "[2]", "value": 49, "unit": "mAbs"}, {"measurement": "ΔA HSA", "setting": "[3]", "value": 92, "unit": "mAbs"}]}
{"molecule": "Carboxypeptidase Y: protease, origin Yeast (protein, UniProt P00729 112-532, looked up) Carboxypeptidase Y: KIKDPKILGIDPNVTQYTGYLDVEDEDKHFFFWTFESRNDPAKDPVILWLNGGPGCSSLTGLFFELGPSSIGPDLKPIGNPYSWNSNATVIFLDQPVNVGFSYSGSSGVSNTVAAGKDVYNFLELFFDQFPEYVNKGQDFHIAGESYAGHYIPVFASEILSHKDRNFNLTSVLIGNGLTDPLTQYNYYEPMACGEGGEPSVLPSEECSAMEDSLERCLGLIESCYDSQSVWSCVPATIYCNNAQLAPYQRTGRNVYDIRKDCEGGNLCYPTLQDIDDYLNQDYVKEAVGAEVDHYESCNFDINRNFLFAGDWMKPYHTAVTDLLNQDLPILVYAGDKDFICNWLGNKAWTDVLPWKYDEEFASQKVRNWTASITDEVAGEVKSYKHFTYLRVFNGGHMVPFDVPENALSMVNEWIHGGFSL", "values": [{"measurement": "ΔA Hb", "setting": "[1]", "value": 4, "unit": "mAbs"}, {"measurement": "ΔA Gl", "setting": "[2]", "value": 14, "unit": "mAbs"}, {"measurement": "ΔA HSA", "setting": "[3]", "value": 2, "unit": "mAbs"}]}
{"molecule": "Proteinase K: protease, origin Tritirachium (protein, UniProt P06873 106-384, looked up) Proteinase K: AAQTNAPWGLARISSTSPGTSTYYYDESAGQGSCVYVIDTGIEASHPEFEGRAQMVKTYYYSSRDGNGHGTHCAGTVGSRTYGVAKKTQLFGVKVLDDNGSGQYSTIIAGMDFVASDKNNRNCPKGVVASLSLGGGYSSSVNSAAARLQSSGVMVAVAAGNNNADARNYSPASEPSVCTVGASDRYDRRSSFSNYGSVLDIFGPGTSILSTWIGGSTRSISGTSMATPHVAGLAAYLMTLGKTTAASACRYIADTANKGDLSNIPFGTVNLLAYNNYQA", "values": [{"measurement": "ΔA Hb", "setting": "[1]", "value": 32, "unit": "mAbs"}, {"measurement": "ΔA Gl", "setting": "[2]", "value": 45, "unit": "mAbs"}, {"measurement": "ΔA HSA", "setting": "[3]", "value": 79, "unit": "mAbs"}]}
{"molecule": "Carboxypeptidase A: protease, origin Cow pancreas (protein, UniProt P00730 111-419, looked up) Carboxypeptidase A1: ARSTNTFNYATYHTLDEIYDFMDLLVAEHPQLVSKLQIGRSYEGRPIYVLKFSTGGSNRPAIWIDLGIHSREWITQATGVWFAKKFTEDYGQDPSFTAILDSMDIFLEIVTNPDGFAFTHSQNRLWRKTRSVTSSSLCVGVDANRNWDAGFGKAGASSSPCSETYHGKYANSEVEVKSIVDFVKDHGNFKAFLSIHSYSQLLLYPYGYTTQSIPDKTELNQVAKSAVEALKSLYGTSYKYGSIITTIYQASGGSIDWSYNQGIKYSFTFELRDTGRYGFLLPASQIIPTAQETWLGVLTIMEHTLNNLY", "values": [{"measurement": "ΔA Hb", "setting": "[1]", "value": 13, "unit": "mAbs"}, {"measurement": "ΔA Gl", "setting": "[2]", "value": 50, "unit": "mAbs"}, {"measurement": "ΔA HSA", "setting": "[3]", "value": "<1", "unit": "mAbs"}]}
{"molecule": "Trypsin: protease, origin Cow pancreas (protein, UniProt P00760 24-246, looked up) Serine protease 1: IVGGYTCGANTVPYQVSLNSGYHFCGGSLINSQWVVSAAHCYKSGIQVRLGEDNINVVEGNEQFISASKSIVHPSYNSNTLNNDIMLIKLKSAASLNSRVASISLPTSCASAGTQCLISGWGNTKSSGTSYPDVLKCLKAPILSDSSCKSAYPGQITSNMFCAGYLEGGKDSCQGDSGGPVVCSGKLQGIVSWGSGCAQKNKPGVYTKVCNYVSWIKQTIASN", "values": [{"measurement": "ΔA Hb", "setting": "[1]", "value": "<1", "unit": "mAbs"}, {"measurement": "ΔA Gl", "setting": "[2]", "value": 15, "unit": "mAbs"}, {"measurement": "ΔA HSA", "setting": "[3]", "value": 11, "unit": "mAbs"}]}
{"molecule": "Reactive 327th amino acid Valine: mutant obtained by replacing the lysine with valine, named FOD-V; plasmid pcmFOD5; Sequence ID No. 4 (protein, sequence derived from Fusarium oxysporum IFO- 9722) ASTLTKQSQILIVGGGTWGCSTALHLARRGYTNVTVLDVNRIPSPISAGHDVNKLAGRLSTADSKGDDEDSIWKALSYAAAQGWLHDPVFQPFCHNTGSVVAGSTPKSIKQLVEDEIGDDIDQYTPLNTAEDFRKTMPEGILTGNFPGWKGFYKPTGSGWVHARKAMKAAFEESERLGVKFITGSPEGKVESLIFEDGDVRGAKTADGKEHRADRTILSAGASAEFFLDFENQIQPTAWTLGHIQMTPEETKLYKNLPPLFNINQGFFMEPDEDLHQLKMCDEHPGYCNWVEKPGSKYPQSIPFAKHQVPTEAERRMKQFLKDIMPQLADRPLVHARICWCADTQDRMFLITYHPRHPSLVIASGDCGTGYVHITSIGKFISDCMEGTLEERFAKFWRWRPEKFTEFWGKDPLDRFGADDKIMDLPKSDVEGWTNIKNDI", "values": [{"measurement": "Reactivity ratio, glycated lysine / glycated valine", "setting": "[4]", "value": 1930}]}
{"molecule": "Reactive 327th amino acid Lysine (wild type): wild type fructosyl amino acid oxidase (FOD) originating from Fusarium oxysporm IFO-9972, Sequence ID No. 1 (protein) ASTLTKQSQILIVGGGTWGCSTALHLARRGYTNVTVLDVNRIPSPISAGHDVNKLAGRLSTADSKGDDEDSIWKALSYAAAQGWLHDPVFQPFCHNTGSVVAGSTPKSIKQLVEDEIGDDIDQYTPLNTAEDFRKTMPEGILTGNFPGWKGFYKPTGSGWVHARKAMKAAFEESERLGVKFITGSPEGKVESLIFEDGDVRGAKTADGKEHRADRTILSAGASAEFFLDFENQIQPTAWTLGHIQMTPEETKLYKNLPPLFNINQGFFMEPDEDLHQLKMCDEHPGYCNWVEKPGSKYPQSIPFAKHQVPTEAERRMKQFLKDIMPQLADRPLVHARICWCADTQDRMFLITYHPRHPSLVIASGDCGTGYKHITSIGKFISDCMEGTLEERFAKFWRWRPEKFTEFWGKDPLDRFGADDKIMDLPKSDVEGWTNIKNDI", "values": [{"measurement": "Reactivity ratio, glycated lysine / glycated valine", "setting": "[4]", "value": 9.5}]}
